Source: doi:10.1101/2025.05.23.655777v1

Tested on: NCCCC(=O)O
Assay: purified protein
Settings: fixed pyruvate (6 mM), TAPS pH 9.0, 50 µM PLP, 30 °C

GABA-AT; GABA aminotransferase 1 (recombinant) (Arabidopsis thaliana)
Km: 590 ± 200 µM | kcat: 4.97 s⁻¹
